Measured values: publication PMC1636413 (Nucleic Acids Research, 2006)

What was measured:
Test in all cases: EMSA
[1] = target: T1, MutSwt (Escherichia coli K12, UniProt P23909 1-853)
T1 sequence: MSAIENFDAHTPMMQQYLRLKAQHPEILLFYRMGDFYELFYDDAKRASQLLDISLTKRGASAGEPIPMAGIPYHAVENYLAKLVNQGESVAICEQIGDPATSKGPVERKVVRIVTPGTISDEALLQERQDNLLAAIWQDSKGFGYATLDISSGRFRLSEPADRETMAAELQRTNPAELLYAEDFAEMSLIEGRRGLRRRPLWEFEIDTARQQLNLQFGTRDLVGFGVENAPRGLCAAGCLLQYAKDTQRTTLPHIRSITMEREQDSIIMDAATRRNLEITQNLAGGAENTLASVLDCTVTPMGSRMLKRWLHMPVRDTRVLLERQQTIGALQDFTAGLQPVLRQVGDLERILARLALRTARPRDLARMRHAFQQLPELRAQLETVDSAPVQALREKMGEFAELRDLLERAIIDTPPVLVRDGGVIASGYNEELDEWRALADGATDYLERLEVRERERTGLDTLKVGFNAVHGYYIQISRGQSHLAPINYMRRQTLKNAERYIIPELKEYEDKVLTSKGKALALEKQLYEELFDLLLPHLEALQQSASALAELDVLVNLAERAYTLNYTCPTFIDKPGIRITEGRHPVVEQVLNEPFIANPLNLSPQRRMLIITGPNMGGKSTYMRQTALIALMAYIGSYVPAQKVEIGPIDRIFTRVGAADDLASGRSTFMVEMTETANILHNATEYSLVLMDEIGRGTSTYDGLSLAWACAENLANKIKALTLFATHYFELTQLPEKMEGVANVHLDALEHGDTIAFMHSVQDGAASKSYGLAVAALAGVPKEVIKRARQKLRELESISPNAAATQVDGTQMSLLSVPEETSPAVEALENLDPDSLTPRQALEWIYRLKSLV

[2] = target: T2, MutSCF (cysteine-free MutS) (Escherichia coli K12, UniProt P23909 1-853, C93A;C235S;C239A;C297S;C569S;C711V)
T2 sequence: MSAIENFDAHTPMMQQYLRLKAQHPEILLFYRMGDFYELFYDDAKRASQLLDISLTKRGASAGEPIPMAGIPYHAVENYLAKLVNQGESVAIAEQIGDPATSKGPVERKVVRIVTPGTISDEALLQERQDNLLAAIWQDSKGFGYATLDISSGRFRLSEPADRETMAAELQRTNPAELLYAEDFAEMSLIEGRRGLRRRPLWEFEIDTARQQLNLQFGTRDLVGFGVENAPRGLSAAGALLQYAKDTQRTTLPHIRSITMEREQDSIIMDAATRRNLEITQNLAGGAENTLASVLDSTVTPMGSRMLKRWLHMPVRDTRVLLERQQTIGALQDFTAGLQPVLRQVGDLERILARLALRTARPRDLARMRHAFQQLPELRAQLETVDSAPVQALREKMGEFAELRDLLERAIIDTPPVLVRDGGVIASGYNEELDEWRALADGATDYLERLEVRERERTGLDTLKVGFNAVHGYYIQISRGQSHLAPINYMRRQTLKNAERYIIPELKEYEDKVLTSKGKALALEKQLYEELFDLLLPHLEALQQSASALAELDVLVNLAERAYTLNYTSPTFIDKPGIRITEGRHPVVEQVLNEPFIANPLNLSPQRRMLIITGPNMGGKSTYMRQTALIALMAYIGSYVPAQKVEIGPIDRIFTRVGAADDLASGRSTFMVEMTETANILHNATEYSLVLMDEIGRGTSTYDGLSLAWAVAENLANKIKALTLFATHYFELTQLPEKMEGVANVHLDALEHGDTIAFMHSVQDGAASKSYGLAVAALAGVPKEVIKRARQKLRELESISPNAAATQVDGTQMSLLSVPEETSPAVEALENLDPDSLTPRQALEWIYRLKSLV

[3] = target: T3, MutSCF/D835R (Escherichia coli K12, UniProt P23909 1-853, C93A;C235S;C239A;C297S;C569S;C711V;D835R)
T3 sequence: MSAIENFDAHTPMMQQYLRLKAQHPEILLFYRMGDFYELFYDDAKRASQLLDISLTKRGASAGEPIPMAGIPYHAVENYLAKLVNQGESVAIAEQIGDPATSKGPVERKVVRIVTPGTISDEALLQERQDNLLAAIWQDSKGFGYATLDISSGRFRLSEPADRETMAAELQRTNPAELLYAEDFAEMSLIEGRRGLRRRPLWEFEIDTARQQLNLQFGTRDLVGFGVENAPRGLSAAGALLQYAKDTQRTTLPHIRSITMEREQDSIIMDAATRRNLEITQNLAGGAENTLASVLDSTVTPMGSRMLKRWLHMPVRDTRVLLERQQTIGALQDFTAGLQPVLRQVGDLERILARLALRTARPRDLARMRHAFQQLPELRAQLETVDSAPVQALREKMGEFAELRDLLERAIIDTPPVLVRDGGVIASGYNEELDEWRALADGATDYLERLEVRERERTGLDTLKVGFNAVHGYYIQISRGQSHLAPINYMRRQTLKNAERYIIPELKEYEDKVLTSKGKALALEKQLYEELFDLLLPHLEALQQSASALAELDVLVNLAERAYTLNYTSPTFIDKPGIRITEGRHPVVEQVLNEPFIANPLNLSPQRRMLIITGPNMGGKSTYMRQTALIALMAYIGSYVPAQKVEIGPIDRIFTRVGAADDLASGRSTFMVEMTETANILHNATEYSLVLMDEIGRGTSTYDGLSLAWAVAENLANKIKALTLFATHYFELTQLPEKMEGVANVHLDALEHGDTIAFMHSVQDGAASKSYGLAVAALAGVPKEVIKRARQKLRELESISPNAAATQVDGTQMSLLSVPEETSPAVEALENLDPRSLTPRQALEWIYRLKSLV

B1: 42 bp G/T heteroduplex (dsDNA)
DNA 1: TATTAATTTCGCGGGCTCGAGAGCTTCATCCTCTACGCCGGA
DNA 2: TCCGGCGTAGAGGATGAAGCTTTCGAGCCCGCGAAATTAATA
B1 was tested, and the binding result [1] was “binds”, the “apparent K (half saturation)” value [2] was 42 ± 2 nM and the “apparent K (half saturation)” value [3] was 45 ± 3 nM.
